# Test results published in the DeepSol protein solubility set.
# Experiment: soluble on expression in E. coli; label from the status in PepcDB or PDB records
row,Sequence,soluble on expression in E. coli
1,MSLKLTSYTKTMQGRRKKQEDRYLVITDLTKYIDSNDYKTLYFYKKNPLYFYSIFDGHRGIKACEYCMSHIIKNIIYYFYNQGSAGAGTDEQIMEYIKLAFLKTDEQFLKVSKFPNHGCTIISLIIFRNKMFVANLGDCRAIGVVNISNTLKTEVLSNDHKPNDPKEKERIKKMGGDVICLQNVYRVKANARKNNKDKPSLLERLSMKEEVYLAVSRAIGDKDFKFNNVISATPDVICKEDNLYYSAHEVNYHYVVMACDGVWDTMSNKDIVKILQTYNNDPDKACSEIIKTAYAYGSQVHEGHHHHHH,not soluble
2,MSLKLWENGTFYQMTAEGEQVSAVLTKNGQIHAVGEVADLKKQYATEIDETIDLEGKVVFPGFVDAHIHLLWYGQALERLNLNQTTTKKEALALILERTKQLASEEWLFVEGYDENKWSDEQTLISLVDLDGVSTTNPILVRRIDYHSVSINSALKAHIENFSENGFDGGGEIVRDKAGNFTGILRDNATTLAIDAFPAATPAELNAWLKIAITDLWSKGITGAHSEDLHYFTGFESTFAAFRNTVGANRLPFRAHLLIHHAELANFSTSKESFMSGDKFLELGAMKIFYDGTVGSRTALMSAGYADNPNEKGLQIHSDEAFEDLVQSARKAGLPVAIHILGDQAFANVIRTLRANPPKEGQYDRLIHTPWLTKELIAEAEGLPILFDVQPQFMASDLPWAIDVLGENHPPLAFAWNSLLRAGFPLAGGSDAPIEVPNPFWGIHAAVTRTANADLNGVKYWPEESLTVYEAIELYTKGAAFASYKTTSRGQIAPGFVADFTILAEDPFLIKPANLRHLEVMMTVVNEQVVYKKEGHHHHHH,soluble
3,MSLKMEDIAISITGYSYSNIKETIPDGVDKEEIAAVYEEIIDEYLQKGIPREIPALINVSGVPGAGKSTFCKKLLAMPENSSAIYIGFDAIMENERLPYIREEVNHAEEAFKRWELSARIAGYELLKRAIENKYLIIFDHSSALSQHIDLFNLLLSEGYEVHFNFIFIPEEEARRRAKNRKRYIPPYYIEERSKTLQYLLPEYKRICTTFKQIEPMRTRLIIARHGNTFRPEETPTRVGAKTDLPLVEEFKGRSIGRYLKEHDMIPDVIYAAPLLRTMQTARLAVQTIGLDSDISPLNAFVEIDYGVDENKTEEEVRLRLGNGNIEKGKKIIEDWDKNAVVPDGWKVDPDQIIHTWLDFAEKTVIPHQTTLLVTSNGIIRFAPYLTGDFEKFAQEHKIKVAPGGLCIFDKNDGDSFWTCSAWNVKPYELYADSEGHHHHHH,soluble
4,MSLKMIISYGMPKSASTFAWLVIKKICLNSRLDDVVDLSTAAKGNDSVEDYIDGSVKVNAAQITREVGERCCVIKTHSSAVHFRTLVGGSAFFLPFAQHRDPRDVALSLMDHARRSRELGIADYADCLSIEGCLPVIDSSIENFIEWVDQYSAIPISYDYLCFNGLACLSFIASALDCDVDCAAILKGFERKESIAQFNKGIRHRWVDEMPQAQARMLFRRYEEYYDRFGAEGHHHHHH,not soluble
5,MSLKNLFNKYNDMKGVSSVYISKAMMELNPNLFMKDLYIGKVAEHLNSVQVLSTHDNKVREEMAKDIRSLVQSSKYELLMKQKSTVSGSEVYVNRKGSKVKELIMVMNGASSLKFVYMEGDMTTDDIKKLMLYQSTSQNFIISGDLFYANNKPVTYFKKGNSDNQKDMAELSGTYNLNSIDTNYKEELSTLNDKLKRIDQGLKNMNIKEGHHHHHH,soluble
6,MSLKNPCNAEFQNFCIHGECKYIEHLEAVTCKCQQEYFGERCGEKSMKTHSMIDSSEGHHHHHH,not soluble
7,MSLKPCFGYIRVSTERQGDGASLEAQKDAITGFASQNNLEIVRWFEERETASKTGRPIFGEMMNALVSGAAEGLILHKVDRTARNFSDWSRLHEVAKLGIDVYFAADSLDFGTRGGQLLADIQMALAADYSRNLSQEVKKGIYGRIKNGVYPFRAPLGYLDTGGGNVKAIDPIKAPLVSQVFELYCSGDYSITSLTEEMQRRGLKGVGERPVVRRNIESILRNPFYCGKMLVRGKLYDGAHEPLISTAQYRRVAAIKAQRFVKKSTKHELLFRGLFTCGACGQVLTGERQKAHVYYRCHTPRCGRGAIREDRLEETLREKLARLEISPEDQVTLESDIRAWLNKDGVKDIEKSLRLRISDATARLDRLTDLLVDGAIDKPAYELRKQNVEFEKQQLREELDALERSRAEEKDLKALLALAADLSSLYDAAPPPKKRELIRNCLVAPCVMDGQLVSHPADWLVSLRKSPKTDEKSHSAPQAILEGVRVMHAVVDVEGHHHHHH,soluble
